Here are results for 7 molecules from patent US12454572B2, “Methods of treating anemia in myelodysplastic syndromes” (Dana-Farber Cancer Institute, Inc., priority 2021, dated 2025).

One data set has as its system human CD34+ stem cells. The note with it: cited from earlier work.
The next data set deals with MDS patients. The note with it: cited from earlier work.
Another data set concerns wild-type TH22 cells. The data set is described as follows: secreted IL-22 from in vitro polarized wild-type TH22 cells. Format: cell-based, mouse. The note with it: for secreted IL-22: pifithrin-α, p-nitro 1 μM, Nutlin-3 100 nM. The procedure:
Single-cell suspensions of mouse spleens were prepared by pressing tissue through a 70-μm cell strainer followed by red blood cell lysis using PharmLyse. Total splenic CD4^+ T cells were isolated using CD4 T cell isolation kit (Miltenyi Biotec). Enriched CD4^+ T cells were then incubated with fluorochrome-conjugated antibodies to CD4, CD8, CD25, CD62L, and CD44 to purify naïve CD4^+ T cells using fluorescence activated cell sorting (FACS). In the presence of 1 μg/mL plate-bound anti-CD3ε and soluble 1 μg/mL anti-CD28, T cell polarizations were carried out in IMDM supplemented with 10% FBS, 2 mM L-glutamine, […] penicillin-streptomycin, HEPES (pH 7.2-7.6), non-essential amino acids, 100 μM β-mercaptoethanol (BME), and sodium pyruvate as follows—TH1 (20 ng/mL IL-12, 10 μg/mL anti-IL-4), TH2 (20 ng/mL IL-4, 10 μg/mL anti-IFN-γ), TH17 (30 ng/mL IL-6, 20 ng/mL IL-23, 20 ng/mL IL-1β, 10 μg/mL anti-IL-4, 10 μg/mL anti-IFN-γ), Treg cells (1 ng/mL TGF-β, 10 μg/mL anti-IL-4, 10 μg/mL anti-IFN-γ), and TH22 (30 ng/mL IL-6, 20 ng/mL IL-23, 20 ng/mL IL-1β, 10 μg/mL anti-IL-4, 10 μg/mL anti-IFN-γ, 400 nM FICZ). Pifithrin-α, p-Nitro and Nutlin-3a were purchased from Santa Cruz Biotechnology and Tocris Biosciences, respectively.
IL-22 in human samples was quantified using either Human IL-22 Quantikine ELISA Kit (D2200, R&D Systems) or SMCTM Human IL-22 High Sensitivity Immunoassay Kit (EMD Millipore, 03-0162-00) according to manufacturers' instructions. The SMC assay was read on a SMC Pro (EMD Millipore) instrument. The lower limit of quantification (LLOQ) of this immunoassay is 0.1 pg/mL. IL-22 in mouse samples was quantified using ELISA MAX™ Deluxe Set Mouse IL-22 (BioLegend, 436304). The LLOQ of this immunoassay is 3.9 pg/mL. S100A8 in human samples was quantified using Human S100A8 DuoSet ELISA (DY4570, R&D Systems).

For a further data set, the system named is Lin- BM cells. Briefly: in vitro erythropoiesis assay (erythroid differentiation of Lin- BM cells). The format is cell-based, mouse. The conditions noted are these: for p53 expression: culture treated with rIL-22 vs PBS. How it is done: Whole BM cells were labeled with biotin-conjugated lineage antibodies (cocktail of anti-CD3ε, anti-CD11b, anti-CD45R/B220, anti-Gr1, anti-CD5, and anti-TER-119) (BD Pharmingen) and purified using anti-biotin beads and negative selection on the AutoMACS Pro (Miltenyi). Purified cells were then seeded in fibronectin-coated (2 μg/cm^2) tissue-culture treated polystyrene wells (CORNING® BIOCOAT™ Cellware) at a cell density of 10^5/mL. Erythroid differentiation was carried out according to modified published protocols. The erythropoietic medium was IMDM supplemented with erythropoietin at 10 U/mL, 10 ng/mL stem cell factor SCF, PeproTech), 10 μM Dexamethasone (Sigma-Aldrich), 15% FBS, 1% detoxified BSA (StemCell Technologies), 200 μg/mL holotransferrin (Sigma-Aldrich), […] human insulin (Sigma-Aldrich), 2 mM L-glutamine, 0.1 mM β-mercaptoethanol, and penicillin-streptomycin. After 48 h, the medium was replaced by IMDM medium containing 20% FBS, 2 mM L-glutamine, 0.1 mM β-mercaptoethanol, and penicillin-streptomycin. 50% of the culture media was replaced after 48 h and cell density was maintained at 0.5×10^6/mL. Total culture period for the assay was 6 days. Recombinant mouse IL-22 (PeproTech/Cell Signaling) was used where indicated.

Data set [1] addresses T1, IL-22 (Mus musculus, UniProt Q9JJY9).
T1 sequence (Q9JJY9 34-179): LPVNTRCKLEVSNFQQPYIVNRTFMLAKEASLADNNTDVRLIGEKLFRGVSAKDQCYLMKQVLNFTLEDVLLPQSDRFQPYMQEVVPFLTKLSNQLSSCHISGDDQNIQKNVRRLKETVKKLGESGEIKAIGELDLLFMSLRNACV
The conditions noted are these: cited from earlier work.

In data set [2] the target is T1, IL-22. Briefly: anti-IL-22 antibody in naive, non-anemic wt C57BL/6J mice. The format is in vivo. On the set-up: endogenous in cells; host or cells: living mice (wt C57BL/6J; Riok2f/+Vav1cre and Riok2+/+Vav1cre). The conditions noted are these: healthy, anti-IL-22 vs isotype. The procedure: (§1) Monoclonal anti-IL-22 (Clone IL22JOP) blocking antibody and isotype control IgG2a (Clone eBR2a) were purchased from Thermo Fisher Scientific. Mice were administered anti-IL-22 (50 μg/mouse) or isotype intraperitoneally every 48 h until the conclusion of the experiment. For recombinant IL-22 treatment, mice were injected with recombinant IL-22 (500 ng/mouse; PeproTech) intraperitoneally every 24 h until the conclusion of the experiment.
(§2) Mice were bled via the submandibular facial vein to collect blood in EDTA-coated tubes (BD MICROTAINER™ Capillary Blood Collector, BD 365974). Complete blood counts were obtained using the HemaVet CBC Analyzer (Drew Scientific) or Advia 120 (Siemens Inc.,) instruments.
(§3) Monoclonal anti-IL-22 (Clone IL22JOP) blocking antibody and isotype control IgG2aκ (Clone eBR2a) were purchased from Thermo Fisher Scientific. Mice were administered anti-IL-22 (50 μg/mouse) or isotype intraperitoneally every 48 h until the conclusion of the experiment. For recombinant IL-22 treatment, mice were injected with recombinant IL-22 (500 ng/mouse; PeproTech) intraperitoneally every 24 h until the conclusion of the experiment. Mice were administered these reagents at least five times before inducing PhZ-mediated anemia.

The target in data set [3] is T1, IL-22. Briefly: IL-22 neutralization with anti-IL-22 antibody in mice undergoing PhZ-induced stress erythropoiesis. The format is in vivo. Also on record: endogenous in cells; host or cells: living mice (wt C57BL/6J; Riok2f/+Vav1cre and Riok2+/+Vav1cre). The conditions noted are these: for frequency of apoptotic erythroid progenitors/precursors: viable BM cells. The procedure: (§4) Phenylhydrazine (PhZ) was purchased from Sigma and injected intraperitoneally on 2 consecutive days (days 0 and 1) at a dose of 25 mg/kg. Peripheral blood was collected 3-4 days before the start of treatment and at day 4, 7 and 11. PhZ treatment experiments were carried out in 8-16 week-old mice.
as §1, §2
(§5) Phenylhydrazine (PhZ) was purchased from Sigma and injected intraperitoneally on 2 consecutive days (days 0 and 1) at the dose of 25 mg/kg (sublethal model) or 35 mg/kg (lethal model). Peripheral blood was collected 3-4 days before the start of treatment and at day 4, 7, and 11. PhZ treatment experiments were carried out in 8-12 week old mice.
as §3

For another data set, the system named is Il22ra1f/fEporcre mice. Briefly: recombinant IL-22 administration to Il22ra1f/fEporcre mice subsequently treated with PhZ. The note with it: mice lacking the IL-22 receptor only on erythroid cells. The format is in vivo, mouse. The procedure:
as §5, §3

Another data set has as its system wild-type C57BL/6J mice. The data set is described as follows: recombinant IL-22 administration to wt C57BL/6J mice subsequently treated with PhZ. The note with it: for apoptosis of erythroid progenitors/precursors: in vivo. Format: in vivo, mouse. The procedure: as §4, §1, §2, §5, §3
Where [4] appears, read: Riok2 sufficient (Riok2+/+Vav1cre) mice, PhZ-induced anemia, vs isotype.
The mark [5] stands for this setting: wt C57BL/6J mice undergoing PhZ-induced anemia, vs isotype.

“Also recorded” adds a separate entry of the source. Where two headings read alike, the source gives them in different places.

Regarding `CC(C)n1cnc2c(NCCc3ccc(O)cc3)nc(-c3csc4ccccc34)nc21` [Stemregenin 1], in the data set with human CD34+ stem cells (SR1-pretreated CD34+ cells vs untreated cells), the “increase in erythroid colonies” value is 129 fold. Also, in the data set on human CD34+ stem cells, the “pluripotency of human CD34+ stem cells” value is listed as “maintain”. Besides, in the data set on human CD34+ stem cells (highest fold expansion seen in the erythroid lineage), the “ex vivo expansion of human HSCs” value was “promote”.

For `Nc1cccc2c1CN(C1CCC(=O)NC1=O)C2=O` (centres unmarked) [lenalidomide], the extension of survival in the data set on MDS patients (HR-MDS group) is on record as 4-6 months; in the data set on MDS patients (LR-MDS patients), 14-17 months.

With `COc1ccc(C2=N[C@@H](c3ccc(Cl)cc3)[C@@H](c3ccc(Cl)cc3)N2C(=O)N2CCNC(=O)C2)c(OC(C)C)c1` [nutlin-3], in the data set on wild-type TH22 cells, the cell viability entry is “did not decrease” and the “secreted IL-22” value is listed as “increased”.

With `N=c1sc2c(n1CC(=O)c1ccc([N+](=O)[O-])cc1)CCCC2` [pifithrin-α, p-nitro], in the data set with Lin- BM cells (IL-22-free assay, pifithrin-α, p-nitro 1 μM, Lin- BM cells from Riok2f/+Vav1cre mice), the “apoptosis induced by Riok2 haploinsufficiency” value was “inhibited”. For the same molecule, the “secreted IL-22” value in the data set with wild-type TH22 cells is “decreased”. The cell viability entry with wild-type TH22 cells (viable cells by flow cytometry) is listed as “did not decrease”.

In the case of “anti-IL-22 (Clone IL22JOP): Monoclonal anti-IL-22 blocking antibody purchased from Thermo Fisher Scientific; used in Examples 2-16”, the “neutralization of IL-22” value with IL-22 [1] is listed as “effectively neutralize”. Moreover, the HCT result with IL-22 [2] is recorded as “did not differ”; with IL-22 [3] (Riok2f/+Vav1cre mice, PhZ-induced anemia, vs isotype), “anti-anemic effect; also recorded: increase”; with IL-22 [3] (setting [4]), “anti-anemic effect; also recorded: increase”; with IL-22 [3] (setting [5]), “significantly increased”. The Hb result in the data set with IL-22 [2] is recorded as “did not differ”; with IL-22 [3] (setting [5]) it was “significantly increased”. Besides, the “PB RBCs” value with IL-22 [2] is listed as “did not differ”; with IL-22 [3] (Riok2f/+Vav1cre mice, PhZ-induced anemia, anti-IL-22 50 μg/mouse i.p. every 48 h vs isotype), “anti-anemic effect; also recorded: increase”; with IL-22 [3] (setting [4]) it was “anti-anemic effect; also recorded: increase”; with IL-22 [3] (setting [5]) it was “increases; also recorded: significantly increased; also recorded: faster”. Moreover, the “frequency of apoptotic erythroid progenitors/precursors” value in the data set with IL-22 [3] (Riok2f/+Vav1cre mice, PhZ) is given as “reduced”; in the data set with IL-22 [3] (Riok2 sufficient mice, PhZ), “reduced”. Also, the anemia result with IL-22 [3] (Riok2 haploinsufficient (Riok2f/+Vav1cre) mice, vs isotype) is “partially reversed; also recorded: alleviated”; in the data set with IL-22 [3] (wild-type mice undergoing PhZ-induced stress erythropoiesis), “alleviated”. For the same molecule, the phenylhydrazine-induced anemia entry in the data set with IL-22 [3] (Riok2 sufficient (Riok2+/+Vav1cre) mice) is recorded as “reversed”. The “frequency of RIII and RIV erythroid precursors in the BM” value in the data set with IL-22 [3] (wt C57BL/6J mice, PhZ, vs isotype) is on record as “increased”.

For the molecule etanercept, the “efficacy in MDS patients” value with MDS patients (human, in vivo) was “ineffective”.

B1: rIL-22: recombinant IL-22 (PeproTech / Cell Signaling) (protein, UniProt Q9JJY9 34-179, looked up)
Interleukin-22: LPVNTRCKLEVSNFQQPYIVNRTFMLAKEASLADNNTDVRLIGEKLFRGVSAKDQCYLMKQVLNFTLEDVLLPQSDRFQPYMQEVVPFLTKLSNQLSSCHISGDDQNIQKNVRRLKETVKKLGESGEIKAIGELDLLFMSLRNACV
For B1, in the data set on Lin- BM cells, the p53 expression result is “upregulation”. Moreover, the p53 expression result in the data set on Lin- BM cells (listed as recombinant IL-22) is on record as “induction”. Besides, the terminal erythropoiesis entry in the data set on Lin- BM cells (recombinant IL-22, dose response) is “dose-dependently decreased”. In addition, the phenylhydrazine-induced anemia result with Il22ra1f/fEporcre mice was “failed to exacerbate”. Further, the “BM erythroid progenitor/precursor cells (frequency and number)” value in the data set with wild-type C57BL/6J mice (7 days after PhZ, vs PBS) is listed as “decreased”. For the same molecule, in the data set with wild-type C57BL/6J mice (rIL-22 500 ng/mouse i.p. every 24 h, then PhZ, vs PBS), the “PB RBCs” value was “decreased”. Also, in the data set on wild-type C57BL/6J mice (rIL-22 i.p., PhZ), the BM reticulocytes result is listed as “increase”, the PB reticulocytes entry was “increase” and the “apoptosis of erythroid progenitors/precursors” value was “increased; also recorded: induced”. Besides, the “apoptosis of erythroid progenitors/precursors” value with wild-type C57BL/6J mice (rIL-22 i.p., PhZ, listed as recombinant IL-22) was “increase”. For the same molecule, in the data set on wild-type C57BL/6J mice (rIL-22 i.p., then PhZ, vs PBS), the HCT result is recorded as “decreased” and the Hb entry is “decreased”. Besides, the “PhZ-induced (stress-induced) anemia” value with wild-type C57BL/6J mice (wt mice) is reported as “exacerbates”.
